The text below walks through data of article PMC6774274, “Engineering a Seven Enzyme Biotransformation using Mathematical Modelling and Characterized Enzyme Parts” (Chemcatchem, 2019).

What is called Km is the concentration of substrate that gives half-maximal velocity. One may read the kcat as the maximal rate divided by the concentration of active sites.

Data set [1] deals with T1, mpCAR (Mycolicibacterium phlei, UniProt A0A5N5VEC4).
T1 construct: gene car; N-terminal 6xHis tag, pNIC28-Bsa4, E. coli BL21(DE3); co-expressed with Bacillus subtilis phosphopantetheine transferase; gene from genomic DNA
T1 sequence (A0A5N5VEC4 1-1162): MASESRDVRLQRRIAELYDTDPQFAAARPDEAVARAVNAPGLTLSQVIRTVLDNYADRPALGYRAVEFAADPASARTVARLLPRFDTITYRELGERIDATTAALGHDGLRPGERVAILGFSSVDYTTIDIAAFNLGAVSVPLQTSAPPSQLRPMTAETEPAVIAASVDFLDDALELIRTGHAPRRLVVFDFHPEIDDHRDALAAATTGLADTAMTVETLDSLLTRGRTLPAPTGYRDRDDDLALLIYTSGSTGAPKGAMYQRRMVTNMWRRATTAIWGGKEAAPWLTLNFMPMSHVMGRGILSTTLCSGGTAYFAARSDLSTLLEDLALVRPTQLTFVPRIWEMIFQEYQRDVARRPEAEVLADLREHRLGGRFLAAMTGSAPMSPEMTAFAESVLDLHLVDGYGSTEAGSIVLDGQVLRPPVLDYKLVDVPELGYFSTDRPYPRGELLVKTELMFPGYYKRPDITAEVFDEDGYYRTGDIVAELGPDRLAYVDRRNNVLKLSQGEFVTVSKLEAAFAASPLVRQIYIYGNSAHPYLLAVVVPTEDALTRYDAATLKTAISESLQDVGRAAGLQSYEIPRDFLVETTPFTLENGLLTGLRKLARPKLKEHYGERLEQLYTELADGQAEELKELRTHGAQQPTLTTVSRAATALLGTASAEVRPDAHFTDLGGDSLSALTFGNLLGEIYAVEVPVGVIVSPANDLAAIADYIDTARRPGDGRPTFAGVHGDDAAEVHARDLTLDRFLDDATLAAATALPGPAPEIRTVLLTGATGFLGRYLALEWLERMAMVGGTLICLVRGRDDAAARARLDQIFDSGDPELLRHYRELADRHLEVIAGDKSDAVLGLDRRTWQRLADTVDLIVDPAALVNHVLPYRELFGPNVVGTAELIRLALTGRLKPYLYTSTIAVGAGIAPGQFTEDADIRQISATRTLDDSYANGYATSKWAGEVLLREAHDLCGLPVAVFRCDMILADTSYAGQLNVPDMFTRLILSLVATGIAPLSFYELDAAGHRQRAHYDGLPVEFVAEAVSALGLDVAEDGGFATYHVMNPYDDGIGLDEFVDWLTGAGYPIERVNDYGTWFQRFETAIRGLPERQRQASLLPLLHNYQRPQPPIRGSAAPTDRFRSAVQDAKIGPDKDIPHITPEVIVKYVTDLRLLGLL
Kind of data set: inhibition of CAR reaction. The data set is classed as biochemical. Conditions: read-out: K I-ADP. An excerpt:
inhibition of CAR reaction on mpCAR

Data set [2] has as its target T1, mpCAR. Kind of data set: NADPH oxidation at […] nm, two-substrate fit. Format: biochemical. Particulars: kinetic constant for ATP in the ordered rate equation, not an inhibition constant; otherwise as row above.
Substrate in data set [3]: NC(=O)C1=CN([C@@H]2O[C@H](COP(=O)(O)OP(=O)(O)OC[C@H]3O[C@@H](n4cnc5c(N)ncnc54)[C@H](OP(=O)(O)O)[C@@H]3O)[C@@H](O)[C@H]2O)C=CC1
Put plainly: purified protein. The data set is classed as biochemical, Mycolicibacterium phlei. Conditions: 10 mM MgCl2, 1 mM ATP, 10 mM 4-toluic acid, 100 mM Tris-HCl pH 7.5, 30 °C, varied: cofactor.

Substrate in data set [4]: Nc1ncnc2c1ncn2[C@@H]1O[C@H](COP(=O)(O)OP(=O)(O)OP(=O)(O)O)[C@@H](O)[C@H]1O
Put plainly: purified protein. The data set is classed as biochemical, Mycolicibacterium phlei. Particulars: 0.25 mM NADPH, 10 mM MgCl2, varied 4-toluic acid, 100 mM Tris-HCl pH 7.5, 30 °C.

Substrate in data set [5]: Cc1ccc(C(=O)O)cc1
Kind of data set: purified protein. Particulars: 0.25 mM NADPH, 10 mM MgCl2, varied ATP, 100 mM Tris-HCl pH 7.5, 30 °C.

Substrate in data set [6]: Nc1ncnc2c1ncn2[C@@H]1O[C@H](COP(=O)(O)O)[C@@H](O)[C@H]1O
Put plainly: ADP-Glo kinase assay, luminescence. Format: biochemical, Thermodesulfobium narugense. Particulars: polyphosphate co-substrate (12.5 mM PO3 units), 20 or 40 mM MgCl2, 100 mM Tris-HCl pH 7.5, 15 min. The text has this:
ADP-Glo kinase assay, luminescence on tnPAP
(In general: ADP-Glo turns the ADP formed in a reaction into a luminescent signal.)

For the molecule `Nc1ncnc2c1ncn2[C@@H]1O[C@H](COP(=O)(O)OP(=O)(O)O)[C@@H](O)[C@H]1O` [ADP], the Ki in data set [1] is 11 mM.
On to `Nc1ncnc2c1ncn2[C@@H]1O[C@H](COP(=O)(O)OP(=O)(O)OP(=O)(O)O)[C@@H](O)[C@H]1O` [ATP], for which the “K I-ATP” value in data set [2] turned out to be 0.04 ± 0.034 mM.

B1: mpCAR (Mycolicibacterium phlei DSM 43239 = CCUG 21000) (protein)
chain: T1 sequence (A0A5N5VEC4 1-1162)
notes: N-terminal 6xHis tag, pNIC28-Bsa4, E. coli BL21(DE3); co-expressed with Bacillus subtilis phosphopantetheine transferase; gene from genomic DNA
With B1, the Km is 30 ± 8 µM in data set [3], 100 ± 28 µM in data set [4] and 1,500±320 μM in data set [5]. Also, the kcat in data set [3], in data set [4] and in data set [5] was 3.33 ± 0.333 s⁻¹ in each case.

B2: tnPAP (Thermodesulfobium narugense DSM 14796) (protein)
chain: MLEKVDLNKIMDREDYKKEFDNLSIELGALQREARDLKLPIIIVFDGFEAAGKGTLINKLMLPLDPRGYDVIKRFECPSETDNRPYFYKFWKTIPKRGDISIVNESWYKALLSDRVLKKTSPEIVEYLFDEILSFEGQLVADGYLIVKFFLYISEEEQKDRLKKLKKNKDESWRVTDDVLKLHKKYKKFLDAAETVFEKTDTAFAPWTIIEATDKRYATIKIFKTLIEAIKFKIKAIKEKEELPSFENFYPVNELSSLSKIDLNKSLTYEEYIEKLHPLQREIHDLQYRLWKERVPVIVAFEGWDAAGKGGSIKRLTEAMDPRGYTVIPIGAPNEYELAHHYLWRFWQNVPEKGNIAIFDRTWYGRVLVERVEKLCKDFDWQRAYGEIKQMEKQFTNFGIVLLKFWLHIDKKTQLERFEEREKNPFKHWKITEDDWRNRSKWDDYLPAVEEMLIRTSTAEAPWNIIEANDKYFARIKVLETFVNKIKEKLN
notes: N-terminal 6xHis tag, codon-optimised, pNIC28-Bsa4, E. coli
Take B2: in data set [6], the Km was 280 ± 240 µM and the catalytic constant (kcat) was 4.17 ± 2.08 s⁻¹.
